Test results as given in the supplement of paper PMC7125110.
± gives the standard error. Fewer inactive variants are shown than the library holds.

B1: glmS ribozyme (parent)
chain: AUAAAAGCGCCAGAACUACAGAAAUGUAGUUGACGAGGAGGAGGUUUAUCGAAUUUUCGGCGGAUGCCUCCAAA

Columns and labels:
Conditions in all cases: with glucosamine-6-phosphate
glucosamine-6-phosphate [1] = variants of: B1; assay: self-cleavage kobs at 160 uM GlcN6P; higher = faster cleavage; RNA array
Procedure, shortened: (§1)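 In situ transcription by E. coli RNA polymerase produced barcoded ribozyme variants on sequenced MiSeq chips, and a hybridised Cy3 probe tracked them at 37 °C. Glucosamine-6-phosphate was flowed in at 40 μM to 10 mM in HEPES/KCl/Mg(OAc)2 buffer. kcat and KM were taken from weighted Michaelis–Menten fits of kobs values from exponential decay fits.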

glucosamine-6-phosphate [2] = variants of: B1; assay: self-cleavage kobs at 640 uM GlcN6P; higher = faster cleavage; RNA array
Procedure, shortened: as §1

glucosamine-6-phosphate [3] = variants of: B1; assay: self-cleavage kobs at 2500 uM GlcN6P; higher = faster cleavage; RNA array
Procedure, shortened: as §1

glucosamine-6-phosphate [4] = variants of: B1; assay: self-cleavage kobs at 10000 uM GlcN6P; higher = faster cleavage; RNA array
Procedure, shortened: as §1

Variant	self-cleavage kobs at 160 uM GlcN6P (glucosamine-6-phosphate [1])	self-cleavage kobs at 640 uM GlcN6P (glucosamine-6-phosphate [2])	self-cleavage kobs at 2500 uM GlcN6P (glucosamine-6-phosphate [3])	self-cleavage kobs at 10000 uM GlcN6P (glucosamine-6-phosphate [4])
U30A G44C	< 1e-05 s⁻¹			
A14G U30A G32A C68A	< 1e-05 s⁻¹			
G7U G37A A48C	< 1e-05 s⁻¹	< 1e-05 s⁻¹	< 1e-05 s⁻¹	< 1e-05 s⁻¹
A1U U2G A3G A5U A14C U69C	5.02e-05 ± 1.8e-05 s⁻¹	0.000257 ± 6e-05 s⁻¹	0.000526 ± 0.00012 s⁻¹	
C8U U31G G44U C71G	< 1e-05 s⁻¹	< 1e-05 s⁻¹		
A14C U47G C70A	6.05e-05 ± 2.8e-05 s⁻¹	0.000114 ± 3.4e-05 s⁻¹	6.72e-05 ± 1.5e-05 s⁻¹	
A14G U56G U57C	3.78e-05 ± 1.6e-05 s⁻¹	5.18e-05 ± 1.5e-05 s⁻¹	0.000269 ± 8.2e-05 s⁻¹	
A14C A23C G43C	< 1e-05 s⁻¹	< 1e-05 s⁻¹	< 1e-05 s⁻¹	
A15U A52U C58A C70U	< 1e-05 s⁻¹			
U65G C67A C71G	0.000166 ± 5.7e-05 s⁻¹	4.48e-05 ± 1.8e-05 s⁻¹	7.1e-05 ± 1.3e-05 s⁻¹	4.47e-05 ± 1.5e-05 s⁻¹
A53C C58G G60A C67U	0.000139 ± 3.1e-05 s⁻¹		8.04e-05 ± 2.5e-05 s⁻¹	
G7A A48U C71U	< 1e-05 s⁻¹	< 1e-05 s⁻¹	< 1e-05 s⁻¹	
G13U U31A C34A A48C G62U	< 1e-05 s⁻¹			
A39C A53U G59U C67U	< 1e-05 s⁻¹			
U30A G38U U65G C68G	0.000204 ± 4.9e-05 s⁻¹	0.000139 ± 4.3e-05 s⁻¹	0.000149 ± 4.5e-05 s⁻¹	7.88e-05 ± 1.5e-05 s⁻¹
G13A A64C	< 1e-05 s⁻¹	< 1e-05 s⁻¹	< 1e-05 s⁻¹	< 1e-05 s⁻¹
U65C G66C	< 1e-05 s⁻¹	< 1e-05 s⁻¹		< 1e-05 s⁻¹
G35U G37C U45C	< 1e-05 s⁻¹		< 1e-05 s⁻¹	
C10U C50G C68U C70G	0.000109 ± 4e-05 s⁻¹			
G9A C58A	< 1e-05 s⁻¹	< 1e-05 s⁻¹	< 1e-05 s⁻¹	
A14C G35A	< 1e-05 s⁻¹	< 1e-05 s⁻¹	< 1e-05 s⁻¹	< 1e-05 s⁻¹
A15U G43U U56A C68A	0.000115 ± 3.5e-05 s⁻¹		0.00532 ± 0.0014 s⁻¹	
G37A G38U U65C	< 1e-05 s⁻¹			< 1e-05 s⁻¹
C50G C61U C71U	0.000138 ± 4.3e-05 s⁻¹	0.000232 ± 7.4e-05 s⁻¹	9.98e-05 ± 2.4e-05 s⁻¹	0.000211 ± 5.4e-05 s⁻¹
